# Experimental data: PMC13043311, “2′-O-Methyl-guanosine RNA fragments antagonize TLR7 and TLR8 to limit autoimmunity”
# T1: TLR7 WT (mmTLR7) (Macaca mulatta, UniProt B3Y653 27-839)
# T1 sequence: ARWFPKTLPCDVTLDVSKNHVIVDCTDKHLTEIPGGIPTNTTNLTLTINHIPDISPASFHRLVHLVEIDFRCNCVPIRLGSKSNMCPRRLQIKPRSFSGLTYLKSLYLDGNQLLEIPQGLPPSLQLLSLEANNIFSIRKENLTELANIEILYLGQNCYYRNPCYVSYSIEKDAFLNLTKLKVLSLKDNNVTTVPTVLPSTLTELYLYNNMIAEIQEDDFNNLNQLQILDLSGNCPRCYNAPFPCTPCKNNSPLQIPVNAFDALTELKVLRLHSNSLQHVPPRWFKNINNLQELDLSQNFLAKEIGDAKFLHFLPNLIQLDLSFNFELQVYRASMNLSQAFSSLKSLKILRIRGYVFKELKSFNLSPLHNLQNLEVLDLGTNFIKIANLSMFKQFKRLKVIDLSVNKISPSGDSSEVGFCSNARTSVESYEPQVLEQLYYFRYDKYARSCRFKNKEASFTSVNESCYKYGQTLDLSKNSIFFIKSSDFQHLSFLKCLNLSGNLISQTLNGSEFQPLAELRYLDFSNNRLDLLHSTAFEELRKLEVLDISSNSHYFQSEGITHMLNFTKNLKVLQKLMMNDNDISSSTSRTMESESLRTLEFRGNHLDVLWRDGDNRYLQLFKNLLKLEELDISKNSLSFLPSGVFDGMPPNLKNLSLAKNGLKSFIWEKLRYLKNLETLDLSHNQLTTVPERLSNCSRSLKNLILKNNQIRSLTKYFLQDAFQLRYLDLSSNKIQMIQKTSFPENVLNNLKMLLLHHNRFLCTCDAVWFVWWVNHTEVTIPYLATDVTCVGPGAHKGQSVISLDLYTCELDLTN
# T2: TLR8 WT (hTLR8) (human, UniProt Q9NR97 27-827)
# T2 sequence: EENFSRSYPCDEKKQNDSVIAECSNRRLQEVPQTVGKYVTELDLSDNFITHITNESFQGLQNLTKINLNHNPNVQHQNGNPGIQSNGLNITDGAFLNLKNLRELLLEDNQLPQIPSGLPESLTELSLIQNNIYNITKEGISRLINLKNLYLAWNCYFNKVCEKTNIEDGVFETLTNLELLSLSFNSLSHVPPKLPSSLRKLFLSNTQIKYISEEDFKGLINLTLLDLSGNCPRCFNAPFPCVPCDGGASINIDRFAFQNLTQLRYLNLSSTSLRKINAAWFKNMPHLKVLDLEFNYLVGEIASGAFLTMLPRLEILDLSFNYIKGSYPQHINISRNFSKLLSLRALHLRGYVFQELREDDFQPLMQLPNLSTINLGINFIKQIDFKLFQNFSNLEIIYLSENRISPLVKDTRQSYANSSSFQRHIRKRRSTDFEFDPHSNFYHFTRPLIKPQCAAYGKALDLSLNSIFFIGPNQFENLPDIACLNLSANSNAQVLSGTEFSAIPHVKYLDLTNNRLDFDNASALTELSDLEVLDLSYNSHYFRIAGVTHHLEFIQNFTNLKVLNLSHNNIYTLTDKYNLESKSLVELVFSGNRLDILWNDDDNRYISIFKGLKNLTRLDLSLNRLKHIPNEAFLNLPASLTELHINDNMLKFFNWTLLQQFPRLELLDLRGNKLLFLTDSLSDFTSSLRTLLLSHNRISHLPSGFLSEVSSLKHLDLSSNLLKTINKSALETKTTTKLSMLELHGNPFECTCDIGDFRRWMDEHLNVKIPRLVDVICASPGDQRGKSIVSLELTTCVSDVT
# T3: TLR8 F495S (human, UniProt Q9NR97 27-827, F495S)
# T3 sequence: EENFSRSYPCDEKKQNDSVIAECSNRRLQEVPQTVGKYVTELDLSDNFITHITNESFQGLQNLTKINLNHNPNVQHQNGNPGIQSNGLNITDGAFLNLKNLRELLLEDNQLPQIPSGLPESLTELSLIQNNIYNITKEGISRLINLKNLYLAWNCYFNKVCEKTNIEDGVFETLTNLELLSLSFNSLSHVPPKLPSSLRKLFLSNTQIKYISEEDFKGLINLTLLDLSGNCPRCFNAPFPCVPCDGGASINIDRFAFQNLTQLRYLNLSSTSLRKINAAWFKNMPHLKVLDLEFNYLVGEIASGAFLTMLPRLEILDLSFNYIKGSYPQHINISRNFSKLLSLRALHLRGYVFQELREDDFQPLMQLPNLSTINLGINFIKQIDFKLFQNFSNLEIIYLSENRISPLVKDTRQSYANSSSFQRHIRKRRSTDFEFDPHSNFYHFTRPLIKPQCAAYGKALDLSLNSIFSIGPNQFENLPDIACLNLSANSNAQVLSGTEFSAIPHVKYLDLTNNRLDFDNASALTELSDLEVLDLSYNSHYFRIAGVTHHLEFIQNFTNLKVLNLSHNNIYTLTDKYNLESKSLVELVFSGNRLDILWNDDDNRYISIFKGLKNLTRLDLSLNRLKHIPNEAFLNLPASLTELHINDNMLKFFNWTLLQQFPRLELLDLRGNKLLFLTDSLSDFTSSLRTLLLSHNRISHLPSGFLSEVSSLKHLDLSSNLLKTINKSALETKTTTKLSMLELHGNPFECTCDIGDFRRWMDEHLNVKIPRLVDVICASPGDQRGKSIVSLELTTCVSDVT
# T4: TLR8 I403S (human, UniProt Q9NR97 27-827, I403S)
# T4 sequence: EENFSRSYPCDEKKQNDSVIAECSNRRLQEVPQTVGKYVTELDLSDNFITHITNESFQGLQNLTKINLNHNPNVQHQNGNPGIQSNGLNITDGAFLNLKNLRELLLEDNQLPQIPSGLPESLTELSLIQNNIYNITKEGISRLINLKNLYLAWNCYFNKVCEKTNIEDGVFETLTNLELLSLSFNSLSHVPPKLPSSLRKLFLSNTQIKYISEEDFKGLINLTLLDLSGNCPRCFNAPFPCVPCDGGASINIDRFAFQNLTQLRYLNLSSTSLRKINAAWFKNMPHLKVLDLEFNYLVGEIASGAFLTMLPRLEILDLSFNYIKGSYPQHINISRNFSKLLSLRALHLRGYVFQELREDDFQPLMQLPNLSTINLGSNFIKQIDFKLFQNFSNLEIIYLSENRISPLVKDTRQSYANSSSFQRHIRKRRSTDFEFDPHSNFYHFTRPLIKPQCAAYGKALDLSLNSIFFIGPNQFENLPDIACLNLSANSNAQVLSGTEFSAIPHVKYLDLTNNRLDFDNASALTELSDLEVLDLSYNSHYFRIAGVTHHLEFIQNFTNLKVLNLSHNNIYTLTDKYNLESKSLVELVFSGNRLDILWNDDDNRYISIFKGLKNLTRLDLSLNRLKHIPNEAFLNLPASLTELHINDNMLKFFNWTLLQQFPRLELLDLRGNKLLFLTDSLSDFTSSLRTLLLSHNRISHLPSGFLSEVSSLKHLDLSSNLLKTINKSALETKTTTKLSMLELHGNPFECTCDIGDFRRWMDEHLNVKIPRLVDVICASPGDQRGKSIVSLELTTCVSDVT
# Assays:
# [1] = molecular target: Macaca mulatta TLR7 (mmTLR7) ectodomain (Macaca mulatta); assay: cryo-EM structure; mmTLR7 ectodomain in the presence of GUC-v1^PS (mGmUdC^PS, mixture of RR, RS, SR and SS configurations); overall resolution 3.0 Å
# [2] = molecular target: Macaca mulatta TLR7 (mmTLR7) ectodomain (Macaca mulatta); assay: cryo-EM structure; TLR7 in complex with mGrUrC^PO; resolution 2.9 Å
# [3] = molecular target: Macaca mulatta TLR7 (mmTLR7) ectodomain (Macaca mulatta); assay: cryo-EM structure; TLR7 in complex with mGrArA^PS (mixture of four PS stereoisomers); resolution 2.7 Å
# [4] = molecular target: T1, TLR7 WT (mmTLR7); assay: SPR; negligible binding; SPR with recombinant TLR7/TLR8; buffer, pH and temperature not in the material; settings: protein: recombinant; chain copies: 2; single-stranded
# [5] = molecular target: T2, TLR8 WT (hTLR8); assay: SPR; average; runs 5±1, 7±1, 5±1, 12±3, 7±1, 11±2; SPR with recombinant TLR7/TLR8; buffer, pH and temperature not in the material; settings: protein: recombinant; chain copies: 2; single-stranded
# [6] = molecular target: T1, TLR7 WT (mmTLR7); assay: SPR; average; runs 7±2, 7±1, 6±1, 4±2, 4±2; SPR with recombinant TLR7/TLR8; buffer, pH and temperature not in the material; settings: protein: recombinant; chain copies: 2; single-stranded
# [7] = molecular target: T2, TLR8 WT (hTLR8); assay: SPR; not detected; SPR with recombinant TLR7/TLR8; buffer, pH and temperature not in the material; settings: protein: recombinant; chain copies: 2; single-stranded
# [8] = molecular target: T2, TLR8 WT (hTLR8); assay: SPR; negligible binding; SPR with recombinant TLR7/TLR8; buffer, pH and temperature not in the material; settings: protein: recombinant; chain copies: 2; single-stranded
# [9] = molecular target: T2, TLR8 WT (hTLR8); assay: SPR; mean computed from runs 1.8±0.2, 1.8±0.2, 1.5±0.2; SPR with recombinant TLR7/TLR8; buffer, pH and temperature not in the material; settings: protein: recombinant; chain copies: 2; single-stranded
# [10] = molecular target: T2, TLR8 WT (hTLR8); assay: SPR; control of the nucleoside series; mean computed from runs 1.4±0.9, 1.5±0.09, 1.6±0.1; SPR with recombinant TLR7/TLR8; buffer, pH and temperature not in the material; settings: protein: recombinant; chain copies: 2; single-stranded
# [11] = molecular target: T3, TLR8 F495S; assay: SPR; no binding observed; SPR with recombinant TLR7/TLR8; buffer, pH and temperature not in the material; settings: protein: recombinant; chain copies: 2; single-stranded
# [12] = molecular target: T4, TLR8 I403S; assay: SPR; mean computed from runs 7.6±0.5, 9.7±0.9, 7.5±0.3; SPR with recombinant TLR7/TLR8; buffer, pH and temperature not in the material; settings: protein: recombinant; chain copies: 2; single-stranded
# [13] = molecular target: T1, TLR7 WT (mmTLR7); assay: cryo-EM; stereoisomer mixture, modeled as SS; 2.7 A; buffer, pH and temperature not in the material; settings: protein: recombinant; chain copies: 2; single-stranded
# [14] = molecular target: T1, TLR7 WT (mmTLR7); assay: SPR; average stated in text; table runs 38±2, 32±2, 30±1, 20±11, 11±1 (mean 26.2); SPR with recombinant TLR7/TLR8; buffer, pH and temperature not in the material; settings: protein: recombinant; chain copies: 2; single-stranded
# [15] = molecular target: T2, TLR8 WT (hTLR8); assay: SPR; average; runs 3±1, 4±1, 5±1, 3±0.4, 4±1, 4±1; SPR with recombinant TLR7/TLR8; buffer, pH and temperature not in the material; settings: protein: recombinant; chain copies: 2; single-stranded
molecule,measurement,setting,value
Macaca mulatta TLR7 (mmTLR7) ectodomain (receptor),stoichiometry N,[1],2
same,stoichiometry N,[2],2
same,stoichiometry N,[3],2
"GCC (XNA, 2'-OMe G1, DNA C2, DNA C3; phosphorothioate linkages, stereo-random) [GCC-v4 PS (mGdCdC)]",binding result,[4],no binding
same,Kd,[5],8 µM
"GUC (XNA, 2'-OMe G1, 2'-OMe U2, DNA C3; phosphorothioate linkages, stereo-random) [GUC-v1 PS (mGmUdC)]",Kd,[6],5.6 µM
same,binding result,[7],no binding
"GTC (XNA, DNA G1, DNA T2, 2'-OMe C3; phosphorothioate linkages, stereo-random) [GUC-v6 PS (dGdTmC)]",binding result,[4],no binding
same,binding result,[8],no binding
"GAA (XNA, 2'-OMe G1, RNA A2 A3; phosphorothioate linkages, stereo-random) [mGrArA PS]",Kd,[9],1.7 µM
same,Kd,[10],1.5 µM
same,binding result,[11],no binding
same,Kd,[12],8.27 µM
same,binding result,[13],binds
"GAG (XNA, 2'-OMe G1, 2'-OMe A2, DNA G3; phosphorothioate linkages, stereo-random) [GAG-v1 PS (mGmAdG)]",Kd,[14],20.2 µM
same,Kd,[15],4 µM
